The Human Domainome abundance scans (Beltran et al. 2025)

B1: Glucocorticoid receptor, residues 419 to 494; numbered along this chain, P04150 (parent)
chain: KLCLVCSDEASGCHYGVLTCGSCKVFFKRAVEGQHNYLCAGRNDCIIDKIRRKNCPACRYRKCLQAGMNLEARKTK

Variants of: B1
Experiment: abundance fitness (aPCA) (normalised: wild type 0, dead -1); higher = more abundant; growth selection in yeast, the domain comes from the species named
Details: Homo sapiens

Abundance fitness: each site, then its substitutions
C58: Q -0.768, E -0.633, A -0.935, F -1, R -1.04, D -0.872, S -0.697, V -0.903, G -0.81, K -1.06, I -0.81, M -0.896, P -0.842, H -0.701, L -0.789, W -1.08, Y -0.405
R52: M -0.101, A -0.051, C 0.051, V -0.056, L -0.048, G -0.016, I -0.093, T -0.129, P -0.203, K -0.03, W -0.112, S -0.12, E -0.028
A57: C -0.039, I -0.614, T -0.571, V -0.656, Q -0.195, K -0.06, L -0.582, F -0.457, M -0.587, E -0.146, G -0.071, W -0.669, S -0.02, P -0.247, N -0.266, D -0.182
I50: S 0.015, G 0.009, D -0.032, W -0.02, R 0.005, E -0.028, V 0.013, A -0.004, P 0.081, L 0.046, M 0.055, Q 0.046, H -0.153, Y -0.143, T -0.007, N -0.018
K62: T -0.047, A -0.015, R -0.05, E -0.2, W -0.505, C 0.007, L -0.048, G -0.105, Y -0.187, N -0.031, V -0.119, P -0.867, Q -0.066, D -0.336, M -0.042, F -0.158, S -0.166
R51: T -0.016, C -0.215, W -0.083, M 0.042, I -0.134, A -0.072, N -0.031, S -0.023, V -0.068, G 0.009, F 0.051, P -0.136, Q -0.002, L -0.031
A66: M -0.031, T 0.029, K 0.024, Y -0.014, E -0.036, I -0.242, L -0.024, V 0.021, N -0.02, G -0.109, W -0.227, H -0.052, Q -0.037, S -0.058, D -0.33, P -0.859, R -0.179, C -0.037
C63: W -0.889, T -0.909, D -0.915, V -0.863, I -0.546, E -0.871, R -0.772, K -0.779, G -0.06, L -0.741, S -0.42, Y -0.85, Q -0.661, H -0.813, M -0.075, F -0.322, A -0.28, N -0.667
Y60: F 0.004, V -0.215, M -0.07, C -0.694, S -0.535, K -0.011, W -0.036, L 0.002, P -0.724, A -0.425, H -0.178, D -0.907, N -0.478, I -0.09, G -0.809
K53: D 0.083, S -0.009, A 0.014, I -0.091, P -0.027, Y -0.026, Q 0.016, C -0.263, E 0.058, M 0.001, L -0.017, W -0.075, G 0.039, T -0.024, V -0.037, R -0.015, H -0.038, F -0.033
C55: Q -0.838, F -1.02, D -1.13, L -1.1, V -0.739, P -0.757, W -0.588, M -1.16, G -0.814, S -0.707, R -0.929, Y -0.66, I -0.801, T -0.849, K -0.877, H -0.911
N54: Q -0.006, E -0.025, S -0.081, H 0.011, V -0.025, D -0.015, W -0.064, L -0.021, A 0.05, R -0.053, Y 0.014, T -0.005, P -0.25, G -0.104, C -0.136, F -0.061, K 0.049, M -0.064, I 0.014
R59: F -0.513, I -0.694, L -0.017, D -0.609, K -0.52, G -0.825, M -0.171, A -0.702, P -0.737, Q -0.259, S -0.81, Y -0.087, V -0.783, N -0.817, E -0.583, H 0.014, W 0.017
M68: G -0.574, A -0.377, L -0.133, F -0.076, K -0.632, C -0.12, I -0.422, E -0.529, D -0.768, H -0.551
G67: T -0.51, Y -0.304, P -0.904, N -0.226, A -0.542, Q -0.371, S -0.516, W -0.656, K -0.308, C -0.534, R -0.491, F -0.447, D -0.347, E -0.228, V -0.583, I -0.415
L64: Y -0.161, F -0.107, W -0.031, C 0.025, E 0.016, K -0.01, T -0.074, D -0.296, P -0.682, S -0.082, N -0.083, A -0.154, M -0.023, G -0.273
Q65: Y -0.09, S -0.009, C -0.111, E -0.06, W -0.063, V -0.029, D 0.045, N -0.071, L -0.035, K -0.052, P -0.567, G -0.06, M -0.057, H 0.09, F -0.045, A -0.019, T -0.086, R -0.053
K49: M -0.021, D -0.164, Y -0.077, N -0.06, C 0.045, T -0.001, H -0.045, L -0.054, R -0.004, Q -0.033, F -0.019, E -0.097, V 0.024, P 0.016, W -0.129, S -0.037
P56: I -0.19, V -0.064, N 0.013, E 0.015, K -0.108, R -0.076, M -0.053, H -0.111, G -0.085, T -0.06, S -0.035, Q -0.001, A 0, F -0.003, C 0.052, L -0.047
R61: I -0.083, Q 0.101, D 0.016, Y -0.089, V 0.064, A 0.054, L 0, F -0.13, C -0.112, H -0.079, P -0.854, K -0.017, E 0.026, S -0.004, G -0.063
D48: R -0.536, L -0.437, Q -0.385, S -0.142, H -0.449, W -0.415, N 0.024, T -0.045, G -0.334, Y -0.139, V -0.596, P -0.591, E -0.072, K -0.487, I -0.579
